Consider four molecules from article PMC11914429, “Reprograming of the ubiquitin ligase Ubr1 by intrinsically disordered Roq1 through cooperating multifunctional motifs” (The EMBO Journal, 2025).

One assay deals with T1, FLAG-Ubr1 (S. cerevisiae, UniProt P19812 1-1950).
T1 construct: ubiquitin ligase Ubr1 of yeast; single subunit of about 200 kDa, nearly 2000 residues; The purified protein comes from a strain with ubr1::nat-PGPD-FLAG-UBR1, so probably the whole protein; source: protease-deficient yeast expressing FLAG-Ubr1 (SSY2908), purified (anti-FLAG agarose, eluted with FLAG peptide); roq1 knockout yeast expressing FLAG-Ubr1, in lysate; not shown: FLAG, N-terminal, kept
As to the kind of experiment: BLI; biotinylated Rad6 immobilised on streptavidin biosensors, 100 nM soluble Ubr1, without or with 200 nM or 1 µM Roq1(22-104); essentially irreversible, only association analysed. To be noted: both partners purified. For orientation: BLI is a label-free optical method that tracks binding on a fibre tip over time.

Another assay addresses T2, FLAG-Ubr1, P19812.
T2 chain: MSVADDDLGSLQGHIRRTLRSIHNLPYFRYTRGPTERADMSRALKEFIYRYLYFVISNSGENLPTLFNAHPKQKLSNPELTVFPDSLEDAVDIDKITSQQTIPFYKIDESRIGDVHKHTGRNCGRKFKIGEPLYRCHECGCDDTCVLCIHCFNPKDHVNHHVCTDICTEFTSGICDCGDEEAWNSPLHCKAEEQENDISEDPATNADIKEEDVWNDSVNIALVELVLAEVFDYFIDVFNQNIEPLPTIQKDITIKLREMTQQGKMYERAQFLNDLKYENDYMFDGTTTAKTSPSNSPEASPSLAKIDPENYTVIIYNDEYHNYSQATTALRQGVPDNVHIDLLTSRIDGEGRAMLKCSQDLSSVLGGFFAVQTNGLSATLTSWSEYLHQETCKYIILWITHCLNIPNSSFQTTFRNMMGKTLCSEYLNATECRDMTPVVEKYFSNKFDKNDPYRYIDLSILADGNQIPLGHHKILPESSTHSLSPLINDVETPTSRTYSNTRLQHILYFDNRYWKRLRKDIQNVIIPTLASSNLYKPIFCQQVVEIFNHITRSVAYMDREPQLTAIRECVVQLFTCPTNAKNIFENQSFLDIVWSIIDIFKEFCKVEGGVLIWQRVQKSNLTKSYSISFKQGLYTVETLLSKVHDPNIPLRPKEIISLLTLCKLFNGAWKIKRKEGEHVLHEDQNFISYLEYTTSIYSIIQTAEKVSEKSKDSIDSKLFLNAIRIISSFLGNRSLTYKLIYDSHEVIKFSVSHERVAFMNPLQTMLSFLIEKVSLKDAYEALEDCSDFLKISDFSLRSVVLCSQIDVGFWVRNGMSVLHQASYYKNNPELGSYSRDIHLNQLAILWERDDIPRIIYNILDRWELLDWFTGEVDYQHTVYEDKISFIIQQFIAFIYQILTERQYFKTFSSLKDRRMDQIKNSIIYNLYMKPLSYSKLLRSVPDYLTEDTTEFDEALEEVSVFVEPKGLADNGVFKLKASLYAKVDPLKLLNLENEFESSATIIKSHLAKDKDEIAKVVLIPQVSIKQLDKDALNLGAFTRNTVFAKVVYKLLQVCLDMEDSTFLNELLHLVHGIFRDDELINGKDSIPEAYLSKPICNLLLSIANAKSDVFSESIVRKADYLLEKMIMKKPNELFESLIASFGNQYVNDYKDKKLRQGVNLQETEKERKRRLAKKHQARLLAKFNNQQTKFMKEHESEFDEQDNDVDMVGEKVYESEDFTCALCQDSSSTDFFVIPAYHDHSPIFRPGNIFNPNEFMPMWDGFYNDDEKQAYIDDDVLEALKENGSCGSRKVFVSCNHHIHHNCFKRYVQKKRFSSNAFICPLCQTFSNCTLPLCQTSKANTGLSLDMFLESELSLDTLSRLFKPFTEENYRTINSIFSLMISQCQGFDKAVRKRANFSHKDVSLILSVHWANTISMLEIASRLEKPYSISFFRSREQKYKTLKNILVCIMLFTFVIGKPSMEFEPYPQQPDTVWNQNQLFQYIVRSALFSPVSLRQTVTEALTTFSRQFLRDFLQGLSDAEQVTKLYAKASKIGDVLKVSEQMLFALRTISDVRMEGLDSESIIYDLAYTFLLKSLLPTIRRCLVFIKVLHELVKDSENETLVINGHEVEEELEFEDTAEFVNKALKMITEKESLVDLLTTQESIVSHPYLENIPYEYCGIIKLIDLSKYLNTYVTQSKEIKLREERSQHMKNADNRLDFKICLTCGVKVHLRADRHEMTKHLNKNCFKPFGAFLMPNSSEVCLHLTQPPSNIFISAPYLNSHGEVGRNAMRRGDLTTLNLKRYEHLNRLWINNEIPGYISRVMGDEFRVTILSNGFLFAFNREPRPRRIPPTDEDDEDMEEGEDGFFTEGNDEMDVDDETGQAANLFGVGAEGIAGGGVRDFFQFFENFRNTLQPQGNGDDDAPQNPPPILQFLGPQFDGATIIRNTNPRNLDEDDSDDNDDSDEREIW
As to the kind of experiment: biolayer interferometry. To be noted: chain shown with the change; 50 nM Ubr1, association step 5 min; value read at end of association (300 s); 50 mM HEPES, 150 mM NaCl, 10 mM MgCl2, 0.05% Tween-20, 0.02% BSA; parent: est. 4.5; read off a plot.

B1: Rad6 (enzyme, UniProt P06104 1-172, looked up)
chain: MSTPARRRLMRDFKRMKEDAPPGVSASPLPDNVMVWNAMIIGPADTPYEDGTFRLLLEFDEEYPNKPPHVKFLSEMFHPNVYANGEICLDILQNRWTPTYDVASILTSIQSLFNDPNPASPANVEAATLFKDHKSQYVKRVKETVEKSWEDDMDDMDDDDDDDDDDDDDEAD
modifications: biotin (amino-reactive NHS-PEG4-Biotin)
notes: ubiquitin-conjugating enzyme Rad6, not conjugated to ubiquitin; The plasmid pCA528-Rad6 was a gift (Axel Mogk); It is probably the yeast protein; also called unloaded Rad6; source: E. coli BL21(DE3), purified (His6-SUMO removed with Ulp1, SEC); not shown: His6-SUMO, N-terminal, cleaved
For the molecule B1, in the assay with FLAG-Ubr1, the binding result is reported as “binds”.

B2: Roq1(22-104) R22A; Y55A; Y56A; F57A; V58A (protein)
chain: ASQRDQTRVDSLVEESPMGDFGINNQPTQPGVIAAAAELTNLGIQENTSSNNNNNNNHGDDENGSRYGHGSSLGGDVHSRRCS
On to B2, for which the response in the assay with FLAG-Ubr1, P19812 came out at 0 nm.

B3: Roq1(22-104) R22A (protein)
chain: ASQRDQTRVDSLVEESPMGDFGINNQPTQPGVIYYFVELTNLGIQENTSSNNNNNNNHGDDENGSRYGHGSSLGGDVHSRRCS
As for B3, the response in the assay with FLAG-Ubr1, P19812 is 0.5 nm.

B4: Roq1(22-104) Y55A; Y56A; F57A; V58A (protein)
chain: RSQRDQTRVDSLVEESPMGDFGINNQPTQPGVIAAAAELTNLGIQENTSSNNNNNNNHGDDENGSRYGHGSSLGGDVHSRRCS
Turning to B4, the response in the assay with FLAG-Ubr1, P19812 was 2 nm.
